{"source": "paper PMC10828586", "about": "“Unmasking crucial residues in adipose triglyceride lipase for coactivation with comparative gene identification-58” (Journal of Lipid Research, 2023)", "binders": {"B1": {"name": "smt3-mCGI-58-His6 (mouse comparative gene identification-58) (natural protein, UniProt Q9DBL9 1-351, looked up)", "chain": "MKAMAAEEEVDSADAGGGSGWLTGWLPTWCPTSTSHLKEAEEKMLKCVPCTYKKEPVRISNGNRIWTLMFSHNISSKTPLVLLHGFGGGLGLWALNFEDLSTDRPVYAFDLLGFGRSSRPRFDSDAEEVENQFVESIEEWRCALRLDKMILLGHNLGGFLAAAYSLKYPSRVSHLILVEPWGFPERPDLADQERPIPVWIRALGAALTPFNPLAGLRIAGPFGLSLVQRLRPDFKRKYSSMFEDDTVTEYIYHCNVQTPSGETAFKNMTIPYGWAKRPMLQRIGGLHPDIPVSVIFGARSCIDGNSGTSIQSLRPKSYVKTIAILGAGHYVYADQPEEFNQKVKEICHTVD"}}, "assay_in_all_cases": "cell-based or functional assay", "key": {"[1]": {"target": "T1, Xpress-mATGL288 N209A/I212A/N215A (Mus musculus, UniProt Q8BJ56 1-288, N209A | I212A | N215A)", "T1 sequence (looked up)": "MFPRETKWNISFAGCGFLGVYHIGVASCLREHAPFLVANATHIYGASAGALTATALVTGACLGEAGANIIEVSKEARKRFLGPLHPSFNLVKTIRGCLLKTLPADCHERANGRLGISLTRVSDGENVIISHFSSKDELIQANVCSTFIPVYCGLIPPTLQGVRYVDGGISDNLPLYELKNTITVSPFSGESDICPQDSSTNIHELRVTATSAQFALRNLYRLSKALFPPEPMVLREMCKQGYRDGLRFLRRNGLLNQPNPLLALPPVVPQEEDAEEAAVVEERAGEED"}, "[2]": {"target": "T2, Xpress-mATGL, full-length, WT (Mus musculus, UniProt Q8BJ56 1-486)", "T2 sequence (looked up)": "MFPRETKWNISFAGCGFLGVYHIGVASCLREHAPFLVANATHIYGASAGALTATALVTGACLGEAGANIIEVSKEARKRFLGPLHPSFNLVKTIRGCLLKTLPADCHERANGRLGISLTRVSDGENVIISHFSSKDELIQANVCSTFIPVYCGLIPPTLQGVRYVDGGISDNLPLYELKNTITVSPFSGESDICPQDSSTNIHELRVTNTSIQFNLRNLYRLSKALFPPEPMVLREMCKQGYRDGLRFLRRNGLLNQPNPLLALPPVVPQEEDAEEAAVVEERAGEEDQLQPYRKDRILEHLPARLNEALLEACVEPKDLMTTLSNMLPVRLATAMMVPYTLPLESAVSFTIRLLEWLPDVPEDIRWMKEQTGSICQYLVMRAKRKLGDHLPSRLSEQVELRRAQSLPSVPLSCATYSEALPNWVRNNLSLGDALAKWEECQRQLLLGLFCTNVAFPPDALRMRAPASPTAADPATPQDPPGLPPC"}, "[3]": {"target": "T3, smt3-mATGL288-StrepII (mouse adipose triglyceride lipase truncated after residue 288), WT (Mus musculus, UniProt Q8BJ56 1-288)", "T3 sequence (looked up)": "T1 sequence (looked up) with A209N, A212I, A215N"}, "[4]": {"target": "T4, smt3-mATGL288-StrepII N209A (Mus musculus, UniProt Q8BJ56 1-288, N209A)", "T4 sequence (looked up)": "T1 sequence (looked up) with A212I, A215N"}, "[5]": {"target": "T5, smt3-mATGL288-StrepII I212S (Mus musculus, UniProt Q8BJ56 1-288, I212S)", "T5 sequence (looked up)": "T1 sequence (looked up) with A209N, A212S, A215N"}, "[6]": {"target": "T6, smt3-mATGL288-StrepII I212A (Mus musculus, UniProt Q8BJ56 1-288, I212A)", "T6 sequence (looked up)": "T1 sequence (looked up) with A209N, A215N"}, "[7]": {"target": "T7, smt3-mATGL288-StrepII N215A (Mus musculus, UniProt Q8BJ56 1-288, N215A)", "T7 sequence (looked up)": "T1 sequence (looked up) with A209N, A212I"}, "[8]": {"target": "T8, Xpress-mATGL288, WT (truncated after residue 288) (Mus musculus, UniProt Q8BJ56 1-288)", "T8 sequence (looked up)": "T1 sequence (looked up) with A209N, A212I, A215N"}}, "note": "Where a chain is given by its changes, count along the chain named."}
{"binder": "B1", "values": [{"measurement": "fold activation of TG hydrolase activity by mCGI-58 (Expi293F lysate)", "setting": "[1]", "result": "≤ 2", "unit": "fold"}, {"measurement": "fold activation of TG hydrolase activity by mCGI-58 (Expi293F lysate)", "setting": "[2]", "result": "~20", "unit": "fold"}, {"measurement": "EC50 of mCGI-58 for coactivation of TG hydrolase activity (25 μg bacterial lysate with mATGL288, purified mCGI-58 up to 2,300 nM)", "setting": "[3]", "result": 178, "unit": "nM"}, {"measurement": "EC50 of mCGI-58 for coactivation of TG hydrolase activity (25 μg bacterial lysate with mATGL288 N209A, purified mCGI-58 up to 2,300 nM)", "setting": "[4]", "result": 500, "unit": "nM"}, {"measurement": "EC50 of mCGI-58 for coactivation of TG hydrolase activity (25 μg bacterial lysate with mATGL288 I212S, purified mCGI-58 up to 2,300 nM)", "setting": "[5]", "result": 200, "unit": "nM"}, {"measurement": "EC50 of mCGI-58 for coactivation of TG hydrolase activity (25 μg bacterial lysate with mATGL288 I212A, purified mCGI-58 up to 2,300 nM)", "setting": "[6]", "result": 500, "unit": "nM"}, {"measurement": "EC50 of mCGI-58 for coactivation of TG hydrolase activity (25 μg bacterial lysate with mATGL288 N215A, purified mCGI-58 up to 2,300 nM)", "setting": "[7]", "result": 200, "unit": "nM"}, {"measurement": "fold activation of TG hydrolase activity by mCGI-58 (Expi293F lysate)", "setting": "[8]", "result": 11, "unit": "fold"}]}
